B1: Focal adhesion kinase 1 (Homo sapiens), Q05397 (parent)
chain: MAAAYLDPNLNHTPNSSTKTHLGTGMERSPGAMERVLKVFHYFESNSEPTTWASIIRHGDATDVRGIIQKIVDSHKVKHVACYGFRLSHLRSEEVHWLHVDMGVSSVREKYELAHPPEEWKYELRIRYLPKGFLNQFTEDKPTLNFFYQQVKSDYMLEIADQVDQEIALKLGCLEIRRSYWEMRGNALEKKSNYEVLEKDVGLKRFFPKSLLDSVKAKTLRKLIQQTFRQFANLNREESILKFFEILSPVYRFDKECFKCALGSSWIISVELAIGPEEGISYLTDKGCNPTHLADFTQVQTIQYSNSEDKDRKGMLQLKIAGAPEPLTVTAPSLTIAENMADLIDGYCRLVNGTSQSFIIRPQKEGERALPSIPKLANSEKQGMRTHAVSVSETDDYAEIIDEEDTYTMPSTRDYEIQRERIELGRCIGEGQFGDVHQGIYMSPENPALAVAIKTCKNCTSDSVREKFLQEALTMRQFDHPHIVKLIGVITENPVWIIMELCTLGELRSFLQVRKYSLDLASLILYAYQLSTALAYLESKRFVHRDIAARNVLVSSNDCVKLGDFGLSRYMEDSTYYKASKGKLPIKWMAPESINFRRFTSASDVWMFGVCMWEILMHGVKPFQGVKNNDVIGRIENGERLPMPPNCPPTLYSLMTKCWAYDPSRRPRFTELKAQLSTILEEEKAQQEERMRMESRRQATVSWDSGGSDEAPPKPSRPGYPSPRSSEGFYPSPQHMVQTNHYQVSGYPGSHGITAMAGSIYPGQASLLDQTDSWNHRPQEIAMWQPNVEDSTVLDLRGIGQVLPTHLMEERLIRQQQEMEEDQRWLEKEERFLKPDVRLSRGSIDREDGSLQGPIGNQHIYQPVGKPDPAAPPKKPPRPGAPGHLGSLASLSSPADSYNEGVKLQPQEISPPPTANLDRSNDKVYENVTGLVKAVIEMSSKIQPAPPEEYVPMVKEVGLALRTLLATVDETIPLLPASTHREIEMAQKLLNSDLGELINKMKLAQQYVMTSLQQEYKKQMLTAAHALAVDAKNLLDVIDQARLKMLGQTRPH

Variants of: B1
Conditions: with itb4_human ITGB4, P16144
Sequence of itb4_human ITGB4, P16144 (P16144 whole entry): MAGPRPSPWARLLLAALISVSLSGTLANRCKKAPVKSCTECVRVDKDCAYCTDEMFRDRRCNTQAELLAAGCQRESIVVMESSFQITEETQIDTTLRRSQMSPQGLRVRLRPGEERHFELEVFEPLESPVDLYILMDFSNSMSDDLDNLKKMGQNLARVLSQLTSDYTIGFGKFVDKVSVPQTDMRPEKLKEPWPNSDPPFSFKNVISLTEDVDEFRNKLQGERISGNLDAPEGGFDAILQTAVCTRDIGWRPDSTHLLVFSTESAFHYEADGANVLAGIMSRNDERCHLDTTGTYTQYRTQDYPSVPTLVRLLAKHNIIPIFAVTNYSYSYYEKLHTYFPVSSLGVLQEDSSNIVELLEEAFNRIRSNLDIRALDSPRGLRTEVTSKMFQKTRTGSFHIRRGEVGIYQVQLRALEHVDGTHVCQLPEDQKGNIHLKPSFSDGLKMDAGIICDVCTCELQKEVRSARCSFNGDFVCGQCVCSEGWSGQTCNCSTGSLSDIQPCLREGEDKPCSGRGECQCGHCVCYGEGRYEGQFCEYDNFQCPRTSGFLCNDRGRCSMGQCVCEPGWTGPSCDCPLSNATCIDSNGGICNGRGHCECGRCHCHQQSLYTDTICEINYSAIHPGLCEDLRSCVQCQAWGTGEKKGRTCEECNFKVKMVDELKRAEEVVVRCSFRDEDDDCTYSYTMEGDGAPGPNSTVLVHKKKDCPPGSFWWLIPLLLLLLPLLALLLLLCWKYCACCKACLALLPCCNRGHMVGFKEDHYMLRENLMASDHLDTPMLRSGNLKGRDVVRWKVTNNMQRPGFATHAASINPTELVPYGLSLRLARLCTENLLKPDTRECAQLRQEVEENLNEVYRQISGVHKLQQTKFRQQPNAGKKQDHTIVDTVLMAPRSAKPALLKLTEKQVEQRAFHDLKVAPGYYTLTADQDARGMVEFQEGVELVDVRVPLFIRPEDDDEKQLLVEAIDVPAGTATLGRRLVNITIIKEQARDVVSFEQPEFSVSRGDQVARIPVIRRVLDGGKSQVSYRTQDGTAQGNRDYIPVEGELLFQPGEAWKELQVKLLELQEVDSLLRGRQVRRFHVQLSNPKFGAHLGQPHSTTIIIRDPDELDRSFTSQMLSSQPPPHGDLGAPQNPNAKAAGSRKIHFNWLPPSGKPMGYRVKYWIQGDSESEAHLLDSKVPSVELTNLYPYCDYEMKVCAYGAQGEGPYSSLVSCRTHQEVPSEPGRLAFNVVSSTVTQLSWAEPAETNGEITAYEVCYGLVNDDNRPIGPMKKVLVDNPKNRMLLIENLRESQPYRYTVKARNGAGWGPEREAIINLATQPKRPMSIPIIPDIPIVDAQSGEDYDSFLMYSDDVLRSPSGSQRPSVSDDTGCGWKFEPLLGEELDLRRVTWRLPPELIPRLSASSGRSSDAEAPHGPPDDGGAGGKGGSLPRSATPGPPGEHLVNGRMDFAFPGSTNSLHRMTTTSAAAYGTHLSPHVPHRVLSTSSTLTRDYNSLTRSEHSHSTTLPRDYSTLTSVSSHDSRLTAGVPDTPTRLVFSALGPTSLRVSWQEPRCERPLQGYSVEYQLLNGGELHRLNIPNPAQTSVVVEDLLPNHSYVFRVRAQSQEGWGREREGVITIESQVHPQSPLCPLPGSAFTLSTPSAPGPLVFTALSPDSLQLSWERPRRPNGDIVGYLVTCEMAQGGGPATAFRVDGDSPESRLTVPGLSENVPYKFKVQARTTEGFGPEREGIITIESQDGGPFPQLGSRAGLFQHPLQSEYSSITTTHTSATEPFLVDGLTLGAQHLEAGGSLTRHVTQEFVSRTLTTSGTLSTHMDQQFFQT

Variant	effect of a mutation on the interaction
E380A;K381A;Q382A	disrupting interaction

Variants of: B1
Conditions: with itb4_human ITGB4, P16144
Remark: another data set of the same source

Variant	effect of a mutation on the interaction
R385A;T386A	decreasing interaction
